System: MS2 coat protein
Experiment: apparent KD of MS2 coat protein; designed switch direction (-1 OFF switch, 1 ON switch): -1; higher = weaker reporter binding
How it was run: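 On Illumina chips, designed RNA switches with common flanks were made by stalled E. coli RNA polymerase. Titrations with SNAP-549-labelled MS2 coat protein, doubling from 0.7 or 1.5 nM to 3 µM, were done with no input, with 200 uM small-molecule ligand, or with an oligonucleotide input. Apparent KD is the median per design over clusters, from curve fits of normalised cluster fluorescence.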

[1] = Eterna round: R95, input ligand: FMN 200 uM
[2] = Eterna round: R95, input ligand: microRNA oligo, concentration not stated
[3] = Eterna round: R95, input ligand: none
[4] = input ligand: microRNA oligo, concentration not stated

In the case of “AAAUAAUAGAUAAAAUAAAACAUGAGGAUCACCCAUGUGGGAUGAUGAGGGUGAAACAAGCUUUUUGCUCGUCUUAU (puzzle: Sensor v3, turn-off variant 1)”, the “apparent KD of MS2 coat protein” value [1] is reported as 386 nM, the “apparent KD of MS2 coat protein” value [2] is reported as 919 nM and the “apparent KD of MS2 coat protein” value [3] is reported as 439 nM.
In the case of “AGUACUAUGCGUGCUGACAUGCGUAGUGCAGCAGGUGUUACAUGAGGAUCACCCAUGUCCUCAUUUGCUCGUCUUAU [Mat - Sensor v3 - Turn-off var 2 - D15] (puzzle: Sensor v3, turn-off variant 2)”, the “apparent KD of MS2 coat protein” value [1] is reported as 75.7 nM, the “apparent KD of MS2 coat protein” value [2] is reported as 79.2 nM and the “apparent KD of MS2 coat protein” value [3] is reported as 80.4 nM.
With “UCAAGCUUUAAGCGUGUGAACAUGAGGAUCACCCAUGUAUUUUAGGUAAUAAGUUCAAUUAUGUAUUCUCGUCUUAU [JR_SWV3TOV1_Sub095] (puzzle: Sensor v3, turn-off variant 1)” the “apparent KD of MS2 coat protein” value [1] was 42.4 nM, the “apparent KD of MS2 coat protein” value [2] was 37.4 nM and the “apparent KD of MS2 coat protein” value [3] was 45.6 nM.
“UCUGGUCGAGGAUAUACAUGAGGAUCACCCAUGUUGAUCAACUGCCGAUAGGCAGAAUGUAGAAGGCGACCAGA [E3/7-A3] (Eterna round: R97, puzzle: Exclusion 3)” was tested, and the “apparent KD of MS2 coat protein” value (input ligand: FMN 200 uM) was 176 nM and the “apparent KD of MS2 coat protein” value (input ligand: none) was 865 nM.
In the case of “AUAAAGCAAGCAUGAUCCCACAUGAGGAUCACCCAUGUGUUCGUCUUAUAGGCUGCUGAGGCUUUUGCCUCGGUGGC [LRO Sensor-off var1-06 loose mod of D91 from Mat747] (Eterna round: R97, puzzle: Sensor, turn-off variant 1)”, the “apparent KD of MS2 coat protein” value (input ligand: FMN 200 uM) is reported as 69 nM and the “apparent KD of MS2 coat protein” value (input ligand: none) is reported as 67.9 nM.
“AACAGUACAGGAUAUACAUGAGGAUCACCCAUGUGAGAAUUAUGUGGCGUACCACAAAGUAGAAGGGUACUGGA [JL Maslow Revisted mod 3] (Eterna round: R96, puzzle: Exclusion 3)” was tested, and the “apparent KD of MS2 coat protein” value (input ligand: FMN 200 uM) was 497 nM, the “apparent KD of MS2 coat protein” value [4] was 61.3 nM and the “apparent KD of MS2 coat protein” value (input ligand: none) was 69.6 nM.
For “GGUUAUUGCAAGGAUAUGCUUUUUUUUUAUAUUGCAGAAGGUGCAACAUGAGGAUCACCCAUGUUGGAGGGAUU [JR_E6_Sub021] (puzzle: Exclusion 6)”, the “apparent KD of MS2 coat protein” value [2] was 28.9 nM.
With “CCCAGAUAGGAAGGAUAUUGUACAUGAGGAUCACCCAUGUAAUAAAUGAGGAUCACGGAUGUAGACAAGAAGGUCCGGAUAAGC [Ostracism 6 - Jieux - Exclusion NG 2] (Eterna round: R96, puzzle: Exclusion NG 2)” the “apparent KD of MS2 coat protein” value (input ligand: FMN 200 uM) was 57.5 nM, the “apparent KD of MS2 coat protein” value [4] was 29.3 nM and the “apparent KD of MS2 coat protein” value (input ligand: none) was 39.5 nM.
With “GUAGAGUAAGGAUAUGCAGAAUAGGAUAGAAUGGAUAGAAUGCAGAAGGUACAUGAGGAUCACCCAUGUAAUGU [Excluse me!!!! 1 - Jieux - Exclusion 4] (puzzle: Exclusion 4)” the “apparent KD of MS2 coat protein” value [2] was 19.3 nM.
“AUGCCGGUCCUCUCAGGUGUACAUGAGGAUCACCCAUGUCACGAGGAUAUCUAAGCGUGGUGGCCAGAGAAGGUGUGACAUGCU [Atibequ] (Eterna round: R96, puzzle: Exclusion NG 3)” was tested, and the “apparent KD of MS2 coat protein” value (input ligand: FMN 200 uM) was 38.7 nM, the “apparent KD of MS2 coat protein” value [4] was 17.2 nM and the “apparent KD of MS2 coat protein” value (input ligand: none) was 22.8 nM.
“CAGUCGAUAAGAUCAAUUAAUUAACAUGAGGAUCACCCAUGUGAGGAUAUCAGCUCGUGUAGAGCUGAGAAGGCACAACGACUG [ExNG3/17-A3] (Eterna round: R96, puzzle: Exclusion NG 3)” was tested, and the “apparent KD of MS2 coat protein” value (input ligand: FMN 200 uM) was 278 nM, the “apparent KD of MS2 coat protein” value [4] was 51.7 nM and the “apparent KD of MS2 coat protein” value (input ligand: none) was 60.2 nM.
In the case of “AAAACCAGAGGAUAUGCGCAUAGAUCAGACUUUGUUUCUGAACAUGAGGAUCACCCAUGUAGAAGGCUGUAAAA [Ex2 #82] (Eterna round: R97, puzzle: Exclusion 2)”, the “apparent KD of MS2 coat protein” value (input ligand: FMN 200 uM) is reported as 27.3 nM and the “apparent KD of MS2 coat protein” value (input ligand: none) is reported as 20.5 nM.
“UGAACAUGUGUCAGGAUAUCUGAUGUAAGUUAAUCGGAGAAGGGACAUGAGGAUCACCCAUGUCGUCGAAAGAU [Eternabot (L2) Solution 40] (Eterna round: R97, puzzle: Brourd's mod of Exclusion 4)” was tested, and the “apparent KD of MS2 coat protein” value (input ligand: FMN 200 uM) was 19.3 nM and the “apparent KD of MS2 coat protein” value (input ligand: none) was 15.5 nM.
With “AUCGUACUAGGAUAUUCGGAAACGGACAUGAGGAUCACCCAUGUGAAUAUCCGCAGUCCAGAAGAAGGAGUGAACG [EX5 C.27] (Eterna round: R97, puzzle: Exclusion 5)” the “apparent KD of MS2 coat protein” value (input ligand: FMN 200 uM) was 33.5 nM and the “apparent KD of MS2 coat protein” value (input ligand: none) was 17.9 nM.
With “AAGAAACAUGAGGAUCACCCAUGUGAGGAUAUGGCCCGCCCGGCGUGAGCUAAAUAAAUCAGAAGGCACAAAGG [salish99_ex1_r4_010] (Eterna round: R97, puzzle: Exclusion 1)” the “apparent KD of MS2 coat protein” value (input ligand: FMN 200 uM) was 24.6 nM and the “apparent KD of MS2 coat protein” value (input ligand: none) was 42.2 nM.
For “UCCUCACAUGAGGAUCACCCAUGUCAGGAUAUGCGCGGCCAAAAGGGCUGCUAAGGCAGCAGAAGGGACGUGAA [Rarequtece] (puzzle: Exclusion 1)”, the “apparent KD of MS2 coat protein” value [1] was 18.7 nM, the “apparent KD of MS2 coat protein” value [2] was 14.1 nM and the “apparent KD of MS2 coat protein” value [3] was 15 nM.
In the case of “AUCCGUUGUAUAGGAUAUAAGUGUAAACUGUACUUAGAAGGAUACAUGAGGAUCACCCAUGUUGUAAUAGAUGAGCAUAGAGCA [Eternabot solution 6] (Eterna round: R96, puzzle: Exclusion NG 1)”, the “apparent KD of MS2 coat protein” value (input ligand: FMN 200 uM) is reported as 52.2 nM, the “apparent KD of MS2 coat protein” value [4] is reported as 24.1 nM and the “apparent KD of MS2 coat protein” value (input ligand: none) is reported as 30.2 nM.
“GCGGCUGACGUCAGGAUAUCCGUACCGUAUGGGUGGGAGAAGGGACAUGAGGAUCACCCAUGUUAAUCUAUUAA [Eternabot (L1) Solution 45] (Eterna round: R97, puzzle: Brourd's mod of Exclusion 4)” was tested, and the “apparent KD of MS2 coat protein” value (input ligand: FMN 200 uM) was 62.7 nM and the “apparent KD of MS2 coat protein” value (input ligand: none) was 58.4 nM.
With “UUUUGAUGAGGAUAUCGAGGUUAGUACAUGAGGAUCACCCAUGUUAUCCAGGUGUCGGUUCGAGAAGGUAUUGGAC [LRO-Ex5-16] (puzzle: Exclusion 5)” the “apparent KD of MS2 coat protein” value [2] was 16 nM.
For “GCAAGCUUUUGCUCGUCUUACAUGAGGAUCACCCAUGUUGGGUCCGGUCGCCGCGGCCGGGCCGGCCGGGCGCCGGG [-38, -65.5 kcal, A 10%] (Eterna round: R97, puzzle: Sensor, turn-off variant 1)”, the “apparent KD of MS2 coat protein” value (input ligand: FMN 200 uM) was 31.2 nM and the “apparent KD of MS2 coat protein” value (input ligand: none) was 33.3 nM.
In the case of “GACUUCUGAGGAUAUACAUAGAUUUACAUGAGGAUCACCCAUGUUCCUCUAUGUAUAAAUGUAGAAGGCAGAAGAG [Mat - Exclusion 5 - JL Mod - D65] (Eterna round: R97, puzzle: Exclusion 5)”, the “apparent KD of MS2 coat protein” value (input ligand: FMN 200 uM) is reported as 70.7 nM and the “apparent KD of MS2 coat protein” value (input ligand: none) is reported as 19.7 nM.
“ACAAGCUUGUAAUGAUUUAACAUGAGGAUCACCCAUGUAAAUGGAAGAACCAAUUUGAUAUGAUUUACUCGUCUUAU [JR_STOV1_Sub008] (Eterna round: R97, puzzle: Sensor, turn-off variant 1)” was tested, and the “apparent KD of MS2 coat protein” value (input ligand: FMN 200 uM) was 495 nM and the “apparent KD of MS2 coat protein” value (input ligand: none) was 589 nM.
For “ACACAGCAAGGAUAUACAUGAGGAUCACCCAUGUGGUGGCCGUUACGGUAGGACUAGUGUAGAAGGUGCAUUGG [EX3 #32] (Eterna round: R97, puzzle: Exclusion 3)”, the “apparent KD of MS2 coat protein” value (input ligand: FMN 200 uM) was 637 nM and the “apparent KD of MS2 coat protein” value (input ligand: none) was 469 nM.
“AAGUACCGUCACGAUAGUGAUGGUACAACAAGCAGUGAAACAUGAGGAUCACCCAUGUCCUCAAUUGCUCGUCUUAU [Sensor 3 - 74] (puzzle: Sensor v3, turn-off variant 2)” was tested, and the “apparent KD of MS2 coat protein” value [1] was 39.9 nM, the “apparent KD of MS2 coat protein” value [2] was 195 nM and the “apparent KD of MS2 coat protein” value [3] was 37.5 nM.
For “UUUUAACAUGAGGAUCACCCAUGUGAGGAUAUCGAAAUUUAUAUUAAUAUUAAUAUAUCGAGAAGGCACAUUUU [JMF 24] (puzzle: Exclusion 1)”, the “apparent KD of MS2 coat protein” value [2] was 74.9 nM.
“ACGUUUUUUGAGGAUAUGCGACGUUUUUUCGUCGUAGAAGGCGAUACAUGAGGAUCACCCAUGUUUAUGGGCAU [LRO-Ex6-18] (puzzle: Exclusion 6)” was tested, and the “apparent KD of MS2 coat protein” value [2] was 129 nM.
